Results: paper PMC9116965 (iScience, 2022)

Molecular target: SARS-CoV-2 Omicron RBD protein (SARS-CoV-2 Omicron (BA.1), S371L | S373P | S375F)
Experiment: SPR

Binder | fold decrease of binding affinity against WT RBD [fold] | fold decrease of binding affinity against the IgG form [fold]
STS165 (full-length IgG form) (antibody, V domains shown) VH: EVQLVESGGGVVRPGGSLRLSCAASGFTFDDYGMSWVRQAPGKGLEWVSGINWNGGSTGYADSVKGRFTISRDNAKNSLYLQMNSLRAEDTALYHCARVGYCGGDCYSLSLAGFPDYWGQGTLVTVSS VL: not shown | 3 | –
STS165 Fab form (Fab, V domains shown) VH: EVQLVESGGGVVRPGGSLRLSCAASGFTFDDYGMSWVRQAPGKGLEWVSGINWNGGSTGYADSVKGRFTISRDNAKNSLYLQMNSLRAEDTALYHCARVGYCGGDCYSLSLAGFPDYWGQGTLVTVSS VL: not shown | – | > 50
